The record followed here is patent US20240002497A1 (Merck Sharp & Dohme, published 2024).

Experiment [1] has as its target T1, huNav1.7α+β1-β2-β3 (human, UniProt Q15858 1-1988; Q07699 19-218; O60939 30-215; Q9NY72 23-215).
T1 construct: 5N11S variant; also called huNav1.7-beta1-beta2-beta3; huNav1.7α+Navβ1-Navβ2-Navβ3
Put plainly: binding FACS, HEK FlpIn cells. The method, then: (§1) Binding of the ISVDs to cell-expressed Nav1.7α was detected via murine anti-Flag (Sigma, catalog #F1804). Briefly, cells were resuspended in FACS buffer (PBS, 10% FBS, NaN₃) and transferred to a 96-well V-bottom plate at 1×10^5 cells/well. Purified FLAG3-tagged ISVD was diluted in FACS buffer and added to the cells for 30 minutes at 4° C. […] Prior to the read-out, the samples were resuspended in 1 μg/mL propidium iodide (Sigma, catalog #P4170) to exclude dead cells. Between each step, the cells were centrifuged for 5 minutes at 200 grams and washed with 100 μL/well FACS buffer.
(§2) Crude periplasmic extracts containing ISVDs from phage display selections (as described above) were screened in FACS for binding to huNav1.7α but not to huNav1.5a. […] As used in Table 8, the drawings, and throughout the description, Navβ1, Navβ2, and Navβ3 are human homologs unless specifically identified otherwise.

Experiment [2] concerns the target T2, huNav157chimera14+β1-β2-β3 (human, UniProt Q07699 19-218; O60939 30-215; Q9NY72 23-215).
T2 construct: HEK FlpIn line; also called huNav157 chimera 14-beta1-beta2-beta3; Nav157ch14-β1-β2-β3
Put plainly: binding FACS, HEK FlpIn cells. How it is done: as §1, §2

The target of another experiment is T3, huNav1.5α+β1-β2-β3 (human, UniProt Q14524 1-2016; A5A6L6 19-218; O60939 30-215; Q2KI11 23-215).
T3 construct: in the cell P2A cleaves it into α, β1, β2, β3; also called huNav1.5-beta1-beta2-beta3
Put plainly: binding FACS, HEK FlpIn cells. How it is done:
as §1, §2

In experiment [3] the target is T1, huNav1.7α+β1-β2-β3. Put plainly: binding FACS, CHO FlpIn cells. How it is done:
as §1, §2

For a further experiment, the target named is T4, rhNav1.7α+β1-β2-β3 (rhesus monkey α subunit with human β …).
T4 construct: P2A cleaves it into α, β1, β2, β3; also called rhNav1.7-beta1-beta2-beta3
Put plainly: binding FACS, CHO FlpIn cells. How it is done:
as §1, §2

In a further experiment the target is T5, huNav1.4α (human, UniProt P35499 1-1836).
T5 construct: also called huNav1.4 (alpha subunit)
Briefly: binding FACS on stable huNav1.x paralog HEK293T cell lines.

For the next experiment, the target named is T6, huNav1.2α (human, UniProt Q99250 1-2005).
T6 construct: also called huNav1.2 (alpha subunit)
Described as above.

For another experiment, the target named is huNav1.1α (human, UniProt P35498 1-2009). The description is as above.
Another experiment concerns the target T7, huNav1.5α (human, UniProt Q14524 1-2016).
T7 construct: also called huNav1.5 (alpha subunit)
The experiment is described as above.

The next experiment deals with T8, huNav1.3α (human, UniProt Q9NY46 1-2000).
T8 construct: also called huNav1.3 (alpha subunit)
The experiment is described as above.

A further experiment concerns the target T9, huNav1.6α (human, UniProt Q9UQD0 1-1980).
T9 construct: also called huNav1.6 (alpha subunit)
The experiment is described as above.

The next experiment has as its target T10, huNav1.8α (human, UniProt Q9Y5Y9 1-1956).
T10 construct: also called huNav1.8 (alpha subunit)
Described as above.

A further experiment concerns the target T11, huNav1.7α+β1 (human, UniProt Q15858 1-1988; Q07699 19-218).
T11 construct: also called huNav1.7-beta1; HEKa/β1
Put plainly: binding FACS, HEK293 cells. How it is done: as §1, §2

The target of experiment [4] is T12, huNav1.7(N146S, V194I, F276V, R277Q, E281V, V331M, E504D, D507E, S508N, N533S)-β1-β2-β3 (human, UniProt Q15858 1-1988; Q07699 19-218; O60939 30-215; Q9NY72 23-215).
T12 construct: Transiently on HEK293T cells; The text prints V1941 for V194I; also called chimeric variant of huNav1.7α with all DI huNav1.7α-rhNav1.7α polymorphisms
Put plainly: FACS on transiently transfected HEK293T cells. How it is done:
as §1
FACS binding studies (as described above) were performed on HEK293T cells transiently transfected with a chimeric variant of huNav1.7α in which all the huNav1.7α-rhNav1.7α polymorphisms of DI are present (N146S, V1941, F276V, R277Q, E281V, V331M, E504D, D507E, S508N, N533S). Replacing the huNav1.7α DI sequence for that of rhNav1.7α is sufficient to abolish the binding of F0103262CO2, F0103265B04, F0103262B06, and F0103265A11 to huNav1.7α, recapitulating the absence of binding on rhNav1.7α (see FIGS. 21A-21B).

For experiment [5], the target named is T13, rhNav1.7α + β1-β2-β3 (rhesus Nav1.7α co-expressed with Navβ1, Navβ2 and Navβ3) (rhesus monkey).
T13 construct: also called rhNav1.7-beta1-beta2-beta3
Briefly: binding FACS; plus = higher activity than reference.

The target in experiment [6] is T14, huNav1.7α + β1-β2-β3 (human, UniProt Q15858 1-1988; A5A6L6 19-218; O60939 30-215; Q2KI11 23-215).
T14 construct: also called huNav1.7-beta1-beta2-beta3; huNav1.7-β1-β2-β3
Put plainly: competition FACS vs EC25 of F103275B05(N93R), HEK FlpIn.

Experiment [7] has as its target T15, rhNav1.7α + β1-β2-β3 (rhesus monkey).
T15 construct: also called rhNav1.7-beta1-beta2-beta3; rhNav1.7-β1-β2-β3
Put plainly: competition FACS vs EC40 of F103275B05(N93R), CHO FlpIn.

Experiment [8] concerns the target T16, huNav1.7α (human, UniProt Q15858 1-1988).
T16 construct: HEK cells expressing the α subunit without β subunits; also called huNav1.7 (alpha-subunit); Human Nav1.7α
Briefly: competition FACS vs EC25 of F103275B05(N93R), HEK.

The target of another experiment is T17, huNav1.7α + β1 (human).
T17 construct: HEK293 cells; also called huNav1.7-beta1; huNav1.7-β1
Put plainly: competition FACS vs EC25 of F103275B05(N93R), HEK.

Another experiment addresses Rhesus Nav1.7α (rhesus, UniProt Q15858 1-1988 (human entry)). Briefly: cell-based or functional assay.
In experiment [9] the target is T14, huNav1.7α + β1-β2-β3. Put plainly: cell-based or functional assay.
In experiment [10] the target is T15, rhNav1.7α + β1-β2-β3. Briefly: cell-based or functional assay.
In experiment [11] the target is T16, huNav1.7α. Briefly: cell-based or functional assay.
Experiment [12] addresses T14, huNav1.7α + β1-β2-β3. Put plainly: competition FACS vs EC25 of F103275B05(N93R), CHO FlpIn.

Positions count from the first letter of the chain named. Names may count otherwise.

T6 sequence (Q99250 whole entry): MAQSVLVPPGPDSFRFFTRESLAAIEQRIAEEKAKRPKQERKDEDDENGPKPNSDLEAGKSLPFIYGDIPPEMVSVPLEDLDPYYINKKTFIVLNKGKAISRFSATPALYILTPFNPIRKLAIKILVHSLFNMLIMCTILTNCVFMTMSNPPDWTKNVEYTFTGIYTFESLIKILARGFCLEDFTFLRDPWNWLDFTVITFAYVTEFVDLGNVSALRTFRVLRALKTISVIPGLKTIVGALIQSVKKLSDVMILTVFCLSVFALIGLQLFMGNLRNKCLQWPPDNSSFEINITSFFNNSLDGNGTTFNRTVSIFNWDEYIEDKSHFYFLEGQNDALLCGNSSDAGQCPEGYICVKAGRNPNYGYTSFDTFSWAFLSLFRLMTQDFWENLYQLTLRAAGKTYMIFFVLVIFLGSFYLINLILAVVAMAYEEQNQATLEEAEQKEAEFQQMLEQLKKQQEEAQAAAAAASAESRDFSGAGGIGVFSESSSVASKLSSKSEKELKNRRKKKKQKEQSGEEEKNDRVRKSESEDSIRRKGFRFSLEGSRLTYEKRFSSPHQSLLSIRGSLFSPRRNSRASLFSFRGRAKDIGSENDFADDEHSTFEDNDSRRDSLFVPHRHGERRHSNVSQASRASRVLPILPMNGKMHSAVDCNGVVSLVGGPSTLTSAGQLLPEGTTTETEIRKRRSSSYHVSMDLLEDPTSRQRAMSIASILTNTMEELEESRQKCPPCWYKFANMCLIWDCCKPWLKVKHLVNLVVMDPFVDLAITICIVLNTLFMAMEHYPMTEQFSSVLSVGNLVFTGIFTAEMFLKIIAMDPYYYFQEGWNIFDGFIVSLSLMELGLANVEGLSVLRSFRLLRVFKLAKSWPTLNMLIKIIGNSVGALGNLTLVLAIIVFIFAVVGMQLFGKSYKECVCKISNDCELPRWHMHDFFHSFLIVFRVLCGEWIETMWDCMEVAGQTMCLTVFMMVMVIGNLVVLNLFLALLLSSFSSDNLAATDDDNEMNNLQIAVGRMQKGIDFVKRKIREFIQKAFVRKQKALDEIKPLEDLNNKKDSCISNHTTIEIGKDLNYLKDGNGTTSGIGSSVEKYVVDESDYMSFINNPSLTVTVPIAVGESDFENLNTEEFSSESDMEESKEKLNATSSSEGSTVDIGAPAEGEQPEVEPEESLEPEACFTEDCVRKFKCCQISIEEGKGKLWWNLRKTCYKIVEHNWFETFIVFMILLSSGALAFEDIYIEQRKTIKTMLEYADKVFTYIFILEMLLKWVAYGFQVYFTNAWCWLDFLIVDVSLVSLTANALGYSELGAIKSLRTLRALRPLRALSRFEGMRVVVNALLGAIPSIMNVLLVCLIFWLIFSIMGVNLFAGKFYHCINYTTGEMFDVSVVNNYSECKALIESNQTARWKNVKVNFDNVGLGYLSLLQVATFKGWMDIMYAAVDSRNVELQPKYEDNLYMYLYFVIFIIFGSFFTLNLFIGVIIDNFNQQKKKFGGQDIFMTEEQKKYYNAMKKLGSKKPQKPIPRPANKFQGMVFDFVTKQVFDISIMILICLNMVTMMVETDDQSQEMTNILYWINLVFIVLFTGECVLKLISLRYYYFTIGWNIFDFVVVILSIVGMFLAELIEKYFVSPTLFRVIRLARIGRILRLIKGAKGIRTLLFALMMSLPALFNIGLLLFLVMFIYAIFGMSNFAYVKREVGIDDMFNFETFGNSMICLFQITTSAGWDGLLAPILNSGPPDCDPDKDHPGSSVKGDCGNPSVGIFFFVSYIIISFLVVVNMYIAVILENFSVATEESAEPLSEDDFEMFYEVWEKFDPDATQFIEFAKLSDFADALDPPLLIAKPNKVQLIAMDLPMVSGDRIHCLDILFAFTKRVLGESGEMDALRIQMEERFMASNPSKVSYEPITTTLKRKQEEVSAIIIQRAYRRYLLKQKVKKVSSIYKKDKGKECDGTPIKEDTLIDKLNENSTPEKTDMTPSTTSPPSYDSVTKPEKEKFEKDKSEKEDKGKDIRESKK
T10 sequence (Q9Y5Y9 whole entry): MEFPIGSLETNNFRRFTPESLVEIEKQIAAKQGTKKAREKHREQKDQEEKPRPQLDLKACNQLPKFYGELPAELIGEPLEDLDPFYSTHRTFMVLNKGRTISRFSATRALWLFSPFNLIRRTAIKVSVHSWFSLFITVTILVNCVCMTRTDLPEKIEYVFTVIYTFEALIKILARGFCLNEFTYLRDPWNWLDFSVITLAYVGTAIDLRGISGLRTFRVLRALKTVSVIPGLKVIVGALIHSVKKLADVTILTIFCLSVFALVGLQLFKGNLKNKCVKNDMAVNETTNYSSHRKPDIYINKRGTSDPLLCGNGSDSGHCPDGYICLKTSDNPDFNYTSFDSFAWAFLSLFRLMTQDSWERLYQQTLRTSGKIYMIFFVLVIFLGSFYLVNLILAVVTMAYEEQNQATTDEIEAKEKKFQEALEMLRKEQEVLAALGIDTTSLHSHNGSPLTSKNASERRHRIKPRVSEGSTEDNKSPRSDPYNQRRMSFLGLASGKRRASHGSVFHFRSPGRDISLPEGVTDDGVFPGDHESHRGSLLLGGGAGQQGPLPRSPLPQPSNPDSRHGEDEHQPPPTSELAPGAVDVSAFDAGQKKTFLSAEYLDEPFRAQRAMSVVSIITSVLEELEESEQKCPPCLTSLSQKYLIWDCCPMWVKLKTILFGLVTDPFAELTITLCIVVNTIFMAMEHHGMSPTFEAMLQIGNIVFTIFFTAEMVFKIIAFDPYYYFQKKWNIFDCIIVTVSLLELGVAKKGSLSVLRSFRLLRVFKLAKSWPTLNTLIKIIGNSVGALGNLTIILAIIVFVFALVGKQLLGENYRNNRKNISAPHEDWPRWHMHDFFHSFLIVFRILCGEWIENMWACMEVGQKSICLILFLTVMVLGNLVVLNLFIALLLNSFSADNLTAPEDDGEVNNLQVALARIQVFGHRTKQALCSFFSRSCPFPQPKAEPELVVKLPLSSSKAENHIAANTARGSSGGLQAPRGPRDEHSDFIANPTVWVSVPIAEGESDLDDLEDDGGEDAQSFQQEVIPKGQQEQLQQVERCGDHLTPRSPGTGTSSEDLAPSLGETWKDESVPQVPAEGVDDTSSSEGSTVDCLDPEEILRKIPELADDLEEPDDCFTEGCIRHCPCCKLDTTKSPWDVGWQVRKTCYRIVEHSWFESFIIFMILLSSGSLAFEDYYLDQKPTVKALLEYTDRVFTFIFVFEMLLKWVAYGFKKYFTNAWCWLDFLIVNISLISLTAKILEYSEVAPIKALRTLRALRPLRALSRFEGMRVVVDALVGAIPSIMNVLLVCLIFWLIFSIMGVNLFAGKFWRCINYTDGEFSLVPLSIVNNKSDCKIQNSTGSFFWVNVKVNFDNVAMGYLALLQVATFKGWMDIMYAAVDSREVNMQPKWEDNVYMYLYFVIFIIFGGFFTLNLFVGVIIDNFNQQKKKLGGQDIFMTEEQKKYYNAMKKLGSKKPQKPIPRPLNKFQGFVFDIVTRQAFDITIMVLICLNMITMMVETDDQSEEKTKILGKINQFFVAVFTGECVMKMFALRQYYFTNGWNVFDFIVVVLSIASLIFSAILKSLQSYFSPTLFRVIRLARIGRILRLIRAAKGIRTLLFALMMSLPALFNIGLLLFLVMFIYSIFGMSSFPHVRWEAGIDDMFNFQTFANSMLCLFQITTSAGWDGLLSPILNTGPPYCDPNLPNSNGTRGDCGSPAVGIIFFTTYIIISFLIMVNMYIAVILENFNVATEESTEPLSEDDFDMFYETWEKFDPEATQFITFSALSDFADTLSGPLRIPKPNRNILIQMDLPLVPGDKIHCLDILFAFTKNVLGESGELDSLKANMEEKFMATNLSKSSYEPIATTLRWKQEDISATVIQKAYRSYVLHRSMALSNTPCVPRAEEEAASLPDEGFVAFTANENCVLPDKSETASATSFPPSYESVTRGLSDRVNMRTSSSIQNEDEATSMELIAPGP

B1: F0103265B04 (parental)-FLAG-HIS6 (VHH)
VHH: EVQLVESGGGLVQPGGSLRLSCAAPSFIFSNNYMEWYRQAPGKQRDWVARITGRGNTNYLDSVKGRFTISRDDAKNTVYLEIDSLKPEDTAVYYCSALWYGGRAWGKGTLVTVSS
As a reminder, the EC50 is the concentration at which the effect is half-maximal. Consider B1, for which the EC50 in the experiment with huNav1.7α+β1-β2-β3 [1] amounted to 8.1 nM; in experiment [2] it was 8.5 nM; in the experiment with huNav1.7α+β1-β2-β3 [3], 5.4 nM; with huNav1.7α+β1 it was 5.5 nM. The binding result in the experiment with huNav1.5α+β1-β2-β3, with rhNav1.7α+β1-β2-β3, with huNav1.4α, with huNav1.2α, with huNav1.1α and with huNav1.5α was “no binding” throughout. The binding result with huNav1.3α is given as “no binding”; with huNav1.6α, “no binding”; with huNav1.8α, “no binding”; in experiment [4], “no binding (tested: 1 µM)”.

B2: F010301886 (VHH)
VHH: EVQLVESGGGLVQPGGSLRLSCATTSRAFIRDVFTGWYRRVPGKERELVARIYNGGNTQYADFAKGRFSISRDNAKKMVTLRMSNLKPEDTGVYYCLFSGTINTGREYRSGDYWGQGTLVTVSS
notes: also called F0103464B09(N58Q); N58Q
Consider B2, for which the “EC50 fold change compared to reference” value in [5] is 2 fold.

B3: F010301888 (VHH)
VHH: B2 VHH with S26H, Q59N
notes: also called F0103464B09(S26H); S26H
In the case of B3, the “EC50 fold change compared to reference” value in experiment [5] turned out to be 3 fold.

B4: F010301892 (VHH)
VHH: B2 VHH with V33L, Q59N
notes: also called F0103464B09(V33L); V33L
Regarding B4, the “EC50 fold change compared to reference” value in experiment [5] was 3 fold.

B5: F010302377 (bispecific antibody)
chain: DVQLVESGGGLVQPGGSLRLSCAASGSIFNINSMAWYRRAPGKQRELVASSTNGGSTNYADSVKGRFTISRDNAKRVYLQMNSLTPEDTAVYYCRALLQPSIYDISRTYWGQGTLVTVSSGGGGSGGGGSGGGGSGGGGSGGGGSGGGGSGGGGSGGGGSGGGGSGGGGSEVQLVESGGGLVQAGGSLRLSCAASKSILSFAYMRWYRQAPGKQREFVASIAIGGATSYTDSVKGRFTISRDNAKNTVYLQMNSLKPEDTAVYYCSAPAGQYRGQGTLVTVSSGAADYKDHDGDYKDHDIDYKDDDDKGAAHHHHHH
notes: also called F0103275B05(E1D, N93R)-50GS-F0103492E09-FLAG3-HIS6
As a reminder, the IC50 is the concentration that gives 50% inhibition. In the case of B5, the IC50 with huNav1.7α + β1-β2-β3 [6] worked out at 5.2 nM; with rhNav1.7α + β1-β2-β3 [7] it was 1.2 nM; in the experiment with huNav1.7α [8], 86 nM; with huNav1.7α + β1 it was 140 nM; with huNav1.7α + β1-β2-β3 [12] it was 4.1 nM. Moreover, the “Qpatch IC50” value was found to be 104 nM with Rhesus Nav1.7α, 0.8 nM with huNav1.7α + β1-β2-β3 [9], 75 nM with rhNav1.7α + β1-β2-β3 [10] and 74 nM in the experiment with huNav1.7α [11].

B6: F010302378 (bispecific antibody)
chain: DVQLVESGGGLVQPGGSLRLSCAASGSIFNINSMAWYRRAPGKQRELVASSTNGGSTNYADSVKGRFTISRDNAKRVYLQMNSLTPEDTAVYYCRALLQPSIYDISRTYWGQGTLVTVSSGGGGSGGGGSGGGGSGGGGSGGGGSGGGGSGGGGSGGGGSGGGGSGGGGSEVQLVESGGGLVQAGSSLSLSCAASGRALSTYAMGWFRQAPGKEREFVARISRSGITTYYTDSVKGRFTISRDRAKDTVYLQMNSLKPEDTAIYLCAADASTNPAGYYLRNRYDYWGQGTLVTVSSGAADYKDHDGDYKDHDIDYKDDDDKGAAHHHHHH
notes: also called F0103275B05(E1D, N93R)-50GS-F0103495F09-FLAG3-HIS6
Consider B6, for which the IC50 in the experiment with huNav1.7α + β1-β2-β3 [6] amounted to 12 nM; with rhNav1.7α + β1-β2-β3 [7], 6.6 nM; in the experiment with huNav1.7α [8], 80 nM; in the experiment with huNav1.7α + β1, 5.2 nM; with huNav1.7α + β1-β2-β3 [12], 10 nM. For the same molecule, the “Qpatch IC50” value with Rhesus Nav1.7α worked out at 103 nM; with huNav1.7α + β1-β2-β3 [9], 2.3 nM; in the experiment with rhNav1.7α + β1-β2-β3 [10], 2.6 nM; in the experiment with huNav1.7α [11], 115 nM.

B7: F010302379 (bispecific antibody)
chain: DVQLVESGGGLVQPGGSLRLSCAASGSIFNINSMAWYRRAPGKQRELVASSTNGGSTNYADSVKGRFTISRDNAKRVYLQMNSLTPEDTAVYYCRALLQPSIYDISRTYWGQGTLVTVSSGGGGSGGGGSGGGGSGGGGSGGGGSGGGGSGGGGSGGGGSGGGGSGGGGSEVQLVESGGGLVQAGGSLRLSCAASGRTFSRYQMGWFRQAPGKEREFVAYISWSGSTRYVDSVKGRFTISRDNAKNTVYLQMNSLKPEDTAVYHCAAGTAGIISSRPETYDSWGQGTQVTVSSGAADYKDHDGDYKDHDIDYKDDDDKGAAHHHHHH
notes: also called F0103275B05(E1D, N93R)-50GS-F0103500E03(P14A, L108Q)-FLAG3-HIS6
With B7, the IC50 was found to be 16 nM with huNav1.7α + β1-β2-β3 [6]; 4.8 nM in the experiment with rhNav1.7α + β1-β2-β3 [7]; 85 nM with huNav1.7α [8]; 150 nM with huNav1.7α + β1; 19 nM in the experiment with huNav1.7α + β1-β2-β3 [12]. Further, the “Qpatch IC50” value with Rhesus Nav1.7α turned out to be 133 nM; in the experiment with huNav1.7α + β1-β2-β3 [9], 3.4 nM; with rhNav1.7α + β1-β2-β3 [10] it was 131 nM; with huNav1.7α [11], 111 nM.
